From US20170267727A1, “Conjugates of pH Low Insertion Peptide and Monomethyl Auristatins in the Treatment of Solid Tumors” (Lehigh University, priority 2016, published 2017)
“Also recorded” adds a separate entry of the source. Where two headings read alike, the source gives them in different places. Positions of bridges follow the written chain, without caps; N, C: chain ends. Non-standard residues stand in square brackets, D forms with d. Chains are numbered I, II in the order given. *: point of attachment. Dolaproine = CO[C@@H]([C@@H]1CCCN1)[C@@H](C)C(=O)O; Dil = CC[C@H](C)[C@H](NC)[C@@H](CC(=O)O)OC; X1 = C[C@@H](N*)[C@@H](O)c1ccccc1; NMeV = CN[C@H](C(=O)O)C(C)C; Mpa = O=C(O)CCS

Assays:
[1] = Construct Stability HPLC in Cell Media; assay type: physicochemical; settings: 10 μM, 2 h at pH 5.0 and 37° C.
Protocol: FIG. 8A, FIG. 8B, and FIG. 8C show Purity check and Chemical stability of pHLIP-MMAE conjugates. (FIG. 8A) and (FIG. 8B): HPLC traces of pHLIP(WT)-MMAE and pHLIP(D25E)-MMAE, respectively: Purified conjugates (upper panels), 10 μM of conjugate in cell media (middle panels) and after incubation in cell media for 2 h at pH 5.0 and 37° C. (lower panels). The small peak observed around 27 min in (FIG. 8B) upper panel corresponds to some residual free pHLIP (<15%), which is known to not be cytotoxic (FIG. 7). (FIG. 8C) HPLC traces of Alexa750-pHLIP(WT)-MMAE: Purified conjugate (upper panel), 10 μM Alexa 750-pHLIP(WT)-MMAE before (upper panel) and after 48 h incubation in mouse serum at 37° C. (lower panel). Purity checks and chemical stability runs were performed on different column and with different flow rate, explaining the difference in retention times and peak broadness (see Experimental Section). […]
Peptide solutions were incubated at either pH 7.4 or pH 5.0 (37° C. and 5% CO2) and 100 μL aliquots were monitored via RP-HPLC at various time points (Agilent Eclipse XDB-C18 […] 9.4×250 mm; flow rate 2 mL/min; phase A: water 0.01% TFA; phase B: acetonitrile 0.01% TFA; gradient 45 min from 95/5 A/B to 0/100 A/B). […] The stability of Alexa750-pHLIP(WT)-MMAE was determined in mouse serum by solubilizing the construct to incubating it at 37° C. and monitoring via RP-HPLC at specific time points.

[2] = for Trp fluorescence emission maxima: POPC liposomes; for insertion in lipid bilayers: acidic conditions
Protocol: State I corresponds to the peptides in an aqueous environment is shown in black, state II: peptides in the presence of lipid membranes at pH 7.4, shown in blue and state III: peptides in the presence of lipids at pH 5.0 is shown in red. [peptide]=7 μM and peptide-lipid ratio=1:300 with POPC liposomes.
Preparation of POPC Liposomes. Ten milligrams of POPC in chloroform were dried and then held under vacuum overnight. The dried lipid film was rehydrated with 1 ml of 5 mM sodium phosphate, pH 8.0, and mixed by vigorous vortex. The resulting multilamellar vesicle solution was freeze-thawed in liquid nitrogen for seven cycles and were extruded through a polycarbonate membrane with […] diameter pores using a mini extruder (Avanti Polar Lipids) to produce large unilamellar vesicles. Liposomes were used immediately following their preparation. Lipid concentration was checked using the Marshall's assay and the size distribution was verified by dynamic light scattering analysis performed at a scattering angle of 90° using an ALV/GSC-3 goniometer system equipped with ALV/ALV-7004 correlator (ALV-GmbH, Langen, Germany).
Sample preparation for Circular Dichroism and Tryptophan Fluorescence Measurements. Prior to CD or fluorescence measurements, lyophilized aliquots of pHLIP constructs were resuspended to 20 μM with 5 mM sodium phosphate, pH 8.0, and incubated for 1 hour at room temperature. This stock solution was diluted to a final concentration of 7 μM and, when appropriate, incubated with POPC liposomes at a 1:300 peptide-to-lipid molar ratio for 30 minutes at room temperature. Subsequently, samples were adjusted to the desired experimental pH values with the addition of aliquots of an HCl solution to elicit pH-dependent insertion. Samples were allowed to equilibrate at the desired pH for 30 minutes at room temperature before spectroscopic measurements.
Tryptophan Fluorescence Spectroscopy. All measurements were carried out using a Cary Eclipse Fluorescence Spectrophotometer (Varian), and performed at 25° C. with pHLIP construct concentrations equal to 7 μM. Samples were excited at 295 nm and the emission spectra were taken from 300 to 500 nm, with the slit widths for emission and excitation both set 5 nm.
Circular Dichroism Spectroscopy. Far-UV CD spectra of pHLIP constructs were recorded on Jasco J-815 CD spectrometer equipped with a Peltier thermal-controlled cuvette holder (Jasco, Inc.). All measurements were performed in 0.1 mm quartz cuvette at 25° C. with pHLIP constructs concentrations equal to 7 μM. CD intensities are expressed in mean residue molar ellipticity [θ] calculated from the following equation: […]

MDA-MB-231 cells = settings: 10 μM, 2 hours, pH 7.4 or pH 5.0
Protocol: (§1) The integrity of the plasma membrane is assessed by the uptake of trypan blue dye. 3,000 cells/well of HeLa (FIG. 4A) and MDA-MB-231 (FIG. 4B) cells were seeded, allowed to adhere overnight and treated with 10 μM conjugates or media alone (no peptide) for 2 hours at pH 7.4 (black bars) or pH 5.0 (grey bars). Cells were detached and counted based on trypan blue uptake with a hemacytometer: % of intact cells corresponds to the number of cells not showing any dye uptake over the total number of cells. Results are shown as mean±SD (n=4).
(§2) Cell Membrane Integrity Assay. HeLa and MDA-MB-231 cells were seeded in 96-well plates at a density of 3,000 cells/well and incubated until confluent (˜72 hours). Before treatment, construct aliquots were solubilized in an appropriate volume of DMEM without FBS (pH 7.4) so that upon pH adjustment 10 μM is obtained. Cell media was removed, the treatment solution was added to each well and cell were incubated at 37° C. for 5-10 minutes. The pH was then adjusted to the desired value using a pre-established volume of DMEM, pH 2.0 buffered with citric acid (final volume=50 μL). The plate was incubated at 37° C. for 2 hours. After treatment, the media was removed, cells were detached using trypsin and counted based on trypan blue uptake using a hemacytometer.

HeLa cells = settings: 10 μM, 2 hours, pH 7.4 or pH 5.0
Protocol: as §1, §2

Row | Substance | degradation in cell media by HPLC or mass spectroscopy [1] | Trp fluorescence emission maxima ([2]; pH 5.0) [nm] | Trp fluorescence emission maxima ([2]; pH 7.4) [nm] | insertion in lipid bilayers [2] | disruption of the plasma membrane (MDA-MB-231 cells) | disruption of the plasma membrane (HeLa cells)
1 | I: H-AAEQNPIYWARYADWLFTTPLLLLDLALLVDADEGTCG-OH / II: [Mpa][NMeV]V[Dil][Dolaproine]-X1 (disulfide I:37-II:1) [pHLIP(WT)-MMAE] | No significant degradation; also recorded: no degradation products are observed | 334 | 348 | can insert in lipid bilayers under acidic conditions to form stable transmembrane α-helices | neither conjugates, nor low pH treatment, caused disruption of the membranes | neither conjugates, nor low pH treatment, caused disruption of the membranes
2 | I: H-AAEQNPIYWARYADWLFTTPLLLLELALLVDADEGTCG-NH2 / II: [Mpa][NMeV]V[Dil][Dolaproine]-X1 (disulfide I:37-II:1) [pHLIP(D25E)-MMAE] | No significant degradation; also recorded: no degradation products are observed | 329 | 347 | can insert in lipid bilayers under acidic conditions to form stable transmembrane α-helices | neither conjugates, nor low pH treatment, caused disruption of the membranes | neither conjugates, nor low pH treatment, caused disruption of the membranes
